Where a chain is given by its changes, count along the chain named. Numbers in names are those of the source.
B1: FIXa-K247N/N249S/R318Y/R338E/T343R/R403E/E410N (protein)
chain 1: YNSGKLEEFVQGNLERECMEEKCSFEEAREVFENTERTTEFWKQYVDGDQCESNPCLNGGSCKDDINSYECWCPFGFEGKNCELDVTCNIKNGRCEQFCKNSADNKVVCSCTEGYRLAENQKSCEPAVPFPCGRVSVSQTSKLTR
chain 2: VVGGEDAKPGQFPWQVVLNGKVDAFCGGSIVNEKWIVTAAHCVETGVKITVVAGEHNIEETEHTEQNRSVIRIIPHHNYNAAINKYNHDIALLELDEPLVLNSYVTPICIADKEYTNIFLKFGSGYVSGWGRVFHKGYSALVLQYLRVPLVDRATCLESTKFRIYNNMFCAGFHEGGRDSCQGDSGGPHVTEVEGTSFLTGIISWGEECAMKGKYGIYTKVSEYVNWIKNKTKLT
B2: FIXa-Y155F/K228N/I251S/R318Y/R338E/R403E/E410N (protein)
chain 1: B1 chain 1
chain 2: B1 chain 2 with K48N, N67K, S69N, I71S, R163T
B3: FIXa-K228N/I251S/R318Y/R338E/R403E/E410N (protein)
chain 1: B1 chain 1
chain 2: B1 chain 2 with K48N, N67K, S69N, I71S, R163T
B4: FIXa-K228N/K247N/N249S/R318Y/R338E/T343R/R403E (protein)
chain 1: B1 chain 1
chain 2: B1 chain 2 with K48N, N230E
B5: FIXa-K228N/K247N/N249S/R318Y/R338E/T343R/E410N (protein)
chain 1: B1 chain 1
chain 2: B1 chain 2 with K48N, E223R
B6: FIXa-K228N/K247N/N249S/R318Y/R338E/T343R/R403E/E410N (protein)
chain 1: B1 chain 1
chain 2: B1 chain 2 with K48N
B7: FIXa-K228N/R318Y/R338E/T343R/R403E/E410N (protein)
chain 1: B1 chain 1
chain 2: B1 chain 2 with K48N, N67K, S69N
B8: FIXa-Y155F/K228N/K247N/N249S/R318Y/R338E/T343R/R403E/E410N (protein)
chain 1: B1 chain 1
chain 2: B1 chain 2 with K48N
B9: FIXa-R318Y/T343R/E410N (protein)
chain 1: B1 chain 1
chain 2: B1 chain 2 with N67K, S69N, E158R, E223R
B10: FIXa-N260S/R318Y/R338E/T343R/R403E/E410N (protein)
chain 1: B1 chain 1
chain 2: B1 chain 2 with N67K, S69N, N80S
B11: FIXa-K228N/K247N/N249S/R318Y/T343R/R403E/E410N (protein)
chain 1: B1 chain 1
chain 2: B1 chain 2 with K48N, E158R
B12: FIXa-Y155F/N260S/R318Y/R338E/T343R/R403E/E410N (protein)
chain 1: B1 chain 1
chain 2: B1 chain 2 with N67K, S69N, N80S

Factor X (FX), P00742, sequence (P00742 whole entry, looked up): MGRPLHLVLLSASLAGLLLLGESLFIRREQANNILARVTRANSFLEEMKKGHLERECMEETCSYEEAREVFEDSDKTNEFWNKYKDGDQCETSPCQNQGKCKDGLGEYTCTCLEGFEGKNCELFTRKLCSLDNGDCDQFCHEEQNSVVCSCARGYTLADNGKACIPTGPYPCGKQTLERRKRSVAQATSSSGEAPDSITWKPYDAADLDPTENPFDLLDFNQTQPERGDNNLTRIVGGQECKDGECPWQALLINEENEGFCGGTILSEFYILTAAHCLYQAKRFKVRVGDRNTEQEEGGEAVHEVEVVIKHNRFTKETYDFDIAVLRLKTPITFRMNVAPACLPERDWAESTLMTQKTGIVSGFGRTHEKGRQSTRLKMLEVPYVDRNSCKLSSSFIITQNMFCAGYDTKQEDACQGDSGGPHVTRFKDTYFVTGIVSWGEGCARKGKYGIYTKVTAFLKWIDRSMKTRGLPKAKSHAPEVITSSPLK
Factor X, P00742, sequence (P00742 whole entry, looked up): as above

Protein	KM (Factor X (FX), P00742) [µM]	catalytic activity (kcat/KM) for activation of FX (Factor X (FX), P00742)	% of WT kcat/KM (Factor X, P00742) [%]	kcat (Factor X, P00742) [s⁻¹]	kcat/KM (Factor X, P00742) [M⁻¹ s⁻¹]	kcat (s^-1) of FX activation by FIXa variant in the Xase complex (FVIIIa, PC/PS vesicles, Ca2+), fluorogenic FXa read-out (Factor X (FX), P00742) [s⁻¹]	KM (Factor X, P00742) [µM]
B1	0.0292	improved activity when combined with other mutations	824	10.6	3.8e+08	–	–
B2	0.0393	–	296	5.3	1.4e+08	–	–
B3	0.0364	–	463	7.5	2.1e+08	–	–
B4	–	–	–	–	–	10.9	0.0444
B5	–	–	–	–	–	4.7	0.0381
B6	0.0251	–	880	9.9	4.1e+08	–	–
B7	–	–	–	–	–	10.5	0.0403
B8	0.0368	–	646	9.4	3e+08	–	–
B9	–	–	–	–	–	3.2	0.0523
B10	0.0321	–	638	8.9	2.9e+08	–	–
B11	–	–	–	–	–	8.1	0.125
B12	0.0402	–	335	5.8	1.5e+08	–	–

From US20210238260
